# Test results from patent US20170165373A1 (Amgen, published 2017).
# Where a chain is given by its changes, count along the chain named. Names may count otherwise. Read-outs that look alike come from different tables or passages of the source.
# T1: human BCMA (huBCMA), full length, on cells (human, UniProt Q02223 1-184)
# T1 construct: also called native huBCMA; B-cell maturation antigen
# T1 chain: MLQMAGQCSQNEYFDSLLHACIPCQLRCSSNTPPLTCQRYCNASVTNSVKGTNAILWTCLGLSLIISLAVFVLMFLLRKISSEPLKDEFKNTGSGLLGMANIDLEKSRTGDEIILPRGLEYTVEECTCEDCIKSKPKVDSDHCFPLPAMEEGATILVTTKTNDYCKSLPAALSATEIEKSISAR
# T2: clipped form of the rhuBCMA fusion protein, SEQ ID NO:355 (human)
# T2 chain: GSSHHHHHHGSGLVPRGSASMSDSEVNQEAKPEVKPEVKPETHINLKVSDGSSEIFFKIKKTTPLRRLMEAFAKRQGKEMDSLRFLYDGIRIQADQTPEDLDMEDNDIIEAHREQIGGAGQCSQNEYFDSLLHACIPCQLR
# T3: clipped form of the rhuBCMA fusion protein, SEQ ID NO:357 (human)
# T3 chain: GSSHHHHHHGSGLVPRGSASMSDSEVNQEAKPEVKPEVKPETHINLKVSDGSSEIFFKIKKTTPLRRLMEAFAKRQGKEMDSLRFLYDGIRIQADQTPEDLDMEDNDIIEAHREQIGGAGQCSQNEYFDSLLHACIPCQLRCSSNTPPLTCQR
# T4: clipped form of the rhuBCMA fusion protein, SEQ ID NO:356 (human)
# T4 chain: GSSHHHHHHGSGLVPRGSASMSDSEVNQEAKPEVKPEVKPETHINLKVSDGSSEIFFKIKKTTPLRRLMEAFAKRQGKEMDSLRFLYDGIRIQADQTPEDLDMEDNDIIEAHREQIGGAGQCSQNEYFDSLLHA
# T5: clipped form of the rhuBCMA fusion protein, SEQ ID NO:354 (human)
# T5 construct: also called Peak A
# T5 chain: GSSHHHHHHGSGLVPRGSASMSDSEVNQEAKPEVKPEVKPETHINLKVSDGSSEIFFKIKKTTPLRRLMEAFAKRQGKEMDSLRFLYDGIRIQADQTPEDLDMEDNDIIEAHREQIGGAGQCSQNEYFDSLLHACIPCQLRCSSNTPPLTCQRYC
# T6: recombinant soluble human BCMA (Biacore analyte of Example 2) (human, UniProt Q02223 1-54)
# T6 construct: also called rhu BCMA; rsol.hu BCMA
# T6 sequence: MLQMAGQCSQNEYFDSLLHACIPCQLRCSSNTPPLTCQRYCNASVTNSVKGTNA
# T7: rhuBCMA fusion protein (6xHis::Sumo::huBCMA(aa 5-51)::GGS::G3::Avi) (human)
# T7 construct: Monomeric tagged fusion; the entry holds the tags, Sumo and the BCMA part; also called Sumo-BCMA; SumoBCMA
# T7 chain: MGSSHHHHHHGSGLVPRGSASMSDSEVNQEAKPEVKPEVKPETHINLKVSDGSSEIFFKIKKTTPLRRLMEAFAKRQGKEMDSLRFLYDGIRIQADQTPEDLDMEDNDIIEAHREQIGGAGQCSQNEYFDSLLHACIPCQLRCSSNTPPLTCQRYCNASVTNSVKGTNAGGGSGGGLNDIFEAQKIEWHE
# T8: TACI, full length, on transiently transfected cells (human, UniProt O14836 1-293)
# T8 construct: whole, on cells; also called huTACI
# T8 sequence (looked up): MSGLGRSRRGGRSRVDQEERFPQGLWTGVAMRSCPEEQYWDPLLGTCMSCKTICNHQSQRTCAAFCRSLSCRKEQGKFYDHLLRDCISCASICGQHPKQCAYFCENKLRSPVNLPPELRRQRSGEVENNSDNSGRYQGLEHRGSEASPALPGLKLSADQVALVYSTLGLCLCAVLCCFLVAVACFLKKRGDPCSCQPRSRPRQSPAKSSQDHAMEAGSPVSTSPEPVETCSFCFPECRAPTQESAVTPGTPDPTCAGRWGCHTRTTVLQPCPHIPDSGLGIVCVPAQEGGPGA
# T9: BAFF-R, full length, on transiently transfected cells (human, UniProt Q96RJ3 1-184)
# T9 construct: whole, on cells; also called huBAFF-R
# T9 sequence (looked up): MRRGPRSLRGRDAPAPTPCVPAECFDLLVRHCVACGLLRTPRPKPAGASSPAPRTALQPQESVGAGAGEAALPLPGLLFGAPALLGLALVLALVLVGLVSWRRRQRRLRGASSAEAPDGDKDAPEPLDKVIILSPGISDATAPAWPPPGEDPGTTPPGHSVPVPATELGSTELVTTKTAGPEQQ
# T10: rrat BCMA fusion protein (GS::6xHis::Sumo::ratBCMA(aa 2-49)::GGS::G3::Avi) (rat)
# T10 chain: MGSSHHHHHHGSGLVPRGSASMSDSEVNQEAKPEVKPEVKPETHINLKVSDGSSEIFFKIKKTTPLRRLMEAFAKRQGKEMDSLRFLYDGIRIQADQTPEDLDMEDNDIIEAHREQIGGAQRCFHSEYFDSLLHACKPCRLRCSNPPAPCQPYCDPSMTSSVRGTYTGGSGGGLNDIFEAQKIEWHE
# B1: 2A1 (parental fully human anti-huBCMA monoclonal antibody) (antibody, human IgG1, lambda, V domains shown)
# VH: EVQLVESGGGLVKPGRSLRLSCTASGFTFGDYALSWFRQAPGKGLEWVGVSRSKAYGGTTDYAASVKGRFTISRDDSKSFAYLQMNSLKTEDTAVYYCCSSGYSSGWTPFDYWGQGTLVTVSS
# VL: not shown
# notes: also called Ab-5; Ab-18
# B2: Ab-1 (2A1CV5) (antibody, human IgG1, lambda, V domains shown)
# VH: B1 VH with R16G, T23A, F80T, C99A
# VL: not shown
# B3: 2A1CV4 (antibody, human IgG1, lambda, V domains shown)
# VH: B1 VH with R16G, T23A, C99A
# VL: not shown
# notes: IgG1 covariance mutein of 2A1; also called Ab-38; P61055.3
# B4: 2A1 Covariance 19 (2A1_K14Q + R17G + T24A + G32S + F44V + G56S + D84N + F88T + T98A + C107A + S108K; 2A1_E144K VL) (antibody, human IgG1, lambda, V domains shown)
# VH: EVQLVESGGGLVQPGGSLRLSCAASGFTFSDYALSWVRQAPGKGLEWVSVSRSKAYGGTTDYAASVKGRFTISRDNSKSTAYLQMNSLKAEDTAVYYCAKSGYSSGWTPFDYWGQGTLVTVSS
# VL: not shown
# notes: also called Ab-37
# B5: 11F12 (fully human anti-huBCMA monoclonal antibody) (antibody, V domains shown)
# VH: QVQLVESGGGVVQPGRSLRLSCAASGFTFSSYGLHWVRQAPGKGLEWVALISYDGSNKYYADSVKGRFTISRDNSKNTLYLQMNSLRAEDTAVYYCWYSSSWTPLDYWGQGTLVTVSS
# VL: DIQMTQSPSSLSASVGDRVTITCRASQGIRNDLGWYQQKPGKAPKRLIYAASSLQSGVPSRFSGSGSGTEFTLTISSLQPEDFATYYCLQYYSYPLTFGGGTKVEIKR
# notes: also called Ab-6; 11F12_LC#1
# B6: 1E1 (fully human anti-huBCMA monoclonal antibody) (antibody, IgG1, V domains shown)
# VH: QVQLVQSGAEVKKPGASVKVSCKASGYTFTGHYIHWVRQAPGQGLEWMGWIYPNSGGTNYAQKFQGRVTMTRDTSISTAYMELSRLRSDDSAVYYCAREGMVTGDYYYYRMDVWGQGTTVIVSS
# VL: QPVLTQPPSASASLGASVTLTCSLSSGYSNYKVDWYQQRPGKGPRFVMRVGIGGIVGSKGDGIPDRFSVLGSGLNRYLTIKNIQEEDESDFHCGADHGSGNNFVYVFGTGTKVTVLG
# notes: Recombinantly cloned as IgG1; also called Ab-4
# Legend:
# [1] = target: T1, human BCMA (huBCMA), full length, on …; test: FACS, H929 cells
# [2] = target: T11, cynomolgus BCMA, on transiently transfected 293T cells (cynomolgus (Macaca fascicularis), UniProt Q02223 1-184 (human entry)); test: FACS equilibrium titration on 293T cells transiently transfected with cynomolgus BCMA (relative FACS affinity)
# T11 construct: also called cyno BCMA
# T11 sequence (Q02223 other isoform, or with tags, fused parts or gaps): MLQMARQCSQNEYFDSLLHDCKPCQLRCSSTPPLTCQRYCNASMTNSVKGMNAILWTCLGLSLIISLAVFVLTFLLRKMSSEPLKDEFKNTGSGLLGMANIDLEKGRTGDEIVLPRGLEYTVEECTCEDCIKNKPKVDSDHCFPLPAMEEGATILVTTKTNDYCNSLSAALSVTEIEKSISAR
# [3] = target: T1, human BCMA (huBCMA), full length, on …; test: cell-based or functional assay
# [4] = target: T1, human BCMA (huBCMA), full length, on …; test: FACS, H929 cells
# [5] = target: T1, human BCMA (huBCMA), full length, on …; test: FACS, H929 cells
# [6] = target: T2, clipped form of the rhuBCMA fusion …; test: LC/MS (ESI-TOF, reduced sample) of the SEC-isolated 2A1 + SumoBCMA sample
# [7] = target: T3, clipped form of the rhuBCMA fusion …; test: as above
# [8] = target: T4, clipped form of the rhuBCMA fusion …; test: as above
# [9] = target: T5, clipped form of the rhuBCMA fusion …; test: as above
# [10] = target: T6, recombinant soluble human BCMA (Biacore …); test: Biacore 3000 SPR, antibody captured on anti-human IgG, rhu BCMA as analyte, 25 C
# [11] = target: T7, rhuBCMA fusion protein …; test: size exclusion chromatography (S200 column, PBS, UV trace), 500 ug antibody incubated with 500 ug sumoBCMA
# [12] = target: T8, TACI, full length, on transiently …; test: FACS on cells transiently transfected with the full-length receptor; positive if MFI is two times the negative control
# [13] = target: T9, BAFF-R, full length, on transiently …; test: as above
# [14] = target: T1, human BCMA (huBCMA), full length, on …; test: FACS equilibrium titration on 293T cells transiently transfected with human BCMA (relative FACS affinity)
# [15] = target: T7, rhuBCMA fusion protein …; test: Biacore T200 SPR, antibody captured on anti-human IgG, rBCMA fusion as analyte, 25 C, 1:1 model
# [16] = target: T1, human BCMA (huBCMA), full length, on …; test: FACS on H929 cells, native BCMA, relative binding, indirect
# [17] = target: T6, recombinant soluble human BCMA (Biacore …); test: Biacore, recombinant soluble human BCMA; measured on parental 2A1; patent says 2A1CV5 binds identically
# [18] = target: T10, rrat BCMA fusion protein …; test: Biacore T200 SPR, antibody captured on anti-human IgG, rBCMA fusion as analyte, 25 C
# [19] = target: T1, human BCMA (huBCMA), full length, on …; test: FACS, H929 cells
# [20] = target: T1, human BCMA (huBCMA), full length, on …; test: FACS on H929 myeloma cells
# [21] = target: T6, recombinant soluble human BCMA (Biacore …); test: Biacore 3000 SPR, antibody captured on anti-human IgG, rhu BCMA as analyte, steady state fit to a 1:1 isotherm
binder,measurement,setting,value
B1,EC50 (read off the curve),[1],~0.3 µg/mL
same,Kd,[2],0.905 nM
same,"ADCC EC50, calcein-AM labelled H929 target cells",[3],0.011 µg/mL
same,EC50 (read off the curve),[4],~0.1 µg/mL
same,EC50 (read off the curve),[5],~0.2 µg/mL
same,binding result,[6],binds
same,binding result,[7],binds
same,binding result,[8],binds
same,binding result,[9],binds
same,Kd,[10],0.027 nM
same,binding result,[11],binds
same,binding result,[12],no binding
same,binding result,[13],no binding
same,Kd,[14],1.1 nM
B2,Kd,[15],0.155 nM
same,EC50,[16],1.2 nM
same,Kd,[17],0.027 nM
same,Kd,[18],> 10 nM
B3,binding result,[19],binds
B4,binding result,[20],binds
B5,Kd,[21],36.1 nM
B6,Kd,[2],> 100 nM
same,"ADCC EC50, calcein-AM labelled H929 target cells",[3],0.076 µg/mL
same,Kd,[10],0.113 nM
same,binding result,[12],no binding
same,binding result,[13],no binding
same,Kd,[14],2.8 nM
